In this test the target is FAK. Kind of test: anti-GFP co-IP, anti-myc blot. Particulars: reference: WT-paxillin-GFP; sites S273.

Sequence of paxillin (P49024 whole entry, looked up, stated change not applied): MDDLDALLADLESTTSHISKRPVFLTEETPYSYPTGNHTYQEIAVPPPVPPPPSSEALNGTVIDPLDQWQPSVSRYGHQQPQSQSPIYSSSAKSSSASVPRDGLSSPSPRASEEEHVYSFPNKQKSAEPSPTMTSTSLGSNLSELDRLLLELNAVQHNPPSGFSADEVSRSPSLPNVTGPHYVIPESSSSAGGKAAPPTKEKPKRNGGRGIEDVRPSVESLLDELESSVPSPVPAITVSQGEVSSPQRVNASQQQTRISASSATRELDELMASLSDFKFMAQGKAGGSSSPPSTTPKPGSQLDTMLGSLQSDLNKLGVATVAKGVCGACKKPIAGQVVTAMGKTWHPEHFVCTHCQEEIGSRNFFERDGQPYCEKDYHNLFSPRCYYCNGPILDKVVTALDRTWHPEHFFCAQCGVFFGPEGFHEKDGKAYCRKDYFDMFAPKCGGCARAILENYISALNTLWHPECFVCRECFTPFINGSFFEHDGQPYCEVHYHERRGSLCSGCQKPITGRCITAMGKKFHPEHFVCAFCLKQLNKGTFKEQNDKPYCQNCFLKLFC

Substance “paxillin (from UniProt P49024) S273A-paxillin-GFP” gave an other: percent increase over reference of 25%.
